In patent US20240026019A1 (Innovent, published 2024):
Values belong to the binder of their own block, whether it stands above or below them.

Tests used:
[1] = biological target: T1, hTNFR2 protein (coated on the microplate in the blocking ELISA) (human, UniProt P20333 23-257); experiment: blocking ELISA: hTNFR2 coated on the plate, binding of biotinylated TNFα blocked by the antibody, Avidin-HRP
T1 construct: The construct coated in the ELISA is not described (it may or may not be the immunogen, Sino biological 10417-H03H)
T1 sequence (looked up): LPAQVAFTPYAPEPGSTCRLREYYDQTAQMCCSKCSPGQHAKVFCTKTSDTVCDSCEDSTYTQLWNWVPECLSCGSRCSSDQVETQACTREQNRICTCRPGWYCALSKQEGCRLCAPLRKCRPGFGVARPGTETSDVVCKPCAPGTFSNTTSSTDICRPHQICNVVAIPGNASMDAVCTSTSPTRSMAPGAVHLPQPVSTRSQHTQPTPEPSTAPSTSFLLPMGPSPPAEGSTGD
Method: The ability of the hybridoma antibodies 3C4, 69B1, and 72G8 and the control antibody OPI to block the binding of human TNFα to hTNFR2 was assayed by ELISA.
The hTNFR2 protein was resuspended and dissolved to a concentration of 2 μg/mL with PBS, and a microplate was coated with the protein and incubated overnight. The plate was blocked with 5% BSA for 1 h, and a biotinylated antigen (Recombinant Biotinylated TNFα protein (ACRO)) was diluted to 3 μg/mL and added to the plate at 20 μL/well. The antibodies prepared as described above (3C4, 69B1, and 72G8) were each diluted in a gradient starting from the maximum concentration of 300 nM for a total of 8 or 12 dilution gradients. The diluted antibodies were added at 200 μL/well and incubated in PBS on ice for 30 min. The antigen-antibody mixture was incubated in a microplate for 90 min and washed three times with PBS, and the supernatant was discarded. 100 μL of Avidin-HRP (Invitrogen) diluted at a 1:5000 ratio was added to each well, incubated at room temperature for 30 min, and washed six times with PBS. A TMB chromogenic solution (solarbio) was added to the plate at 100 μL/well for color development for 1 min, and the reaction was stopped by adding a stop buffer (solarbio) at 100 μL/well. The plate was read on a microplate reader at OD₄₅₀ and OD₆₂₀.

[2] = biological target: T2, human TNFR2 overexpressed on CHO-S cells (CHOS-hTNFR2) (human, UniProt P20333 23-461); experiment: flow cytometry on CHO-S cells overexpressing human TNFR2 (positive control beside the hybridoma antibodies), MFI
T2 construct: also called hTNFR2 CHO-S; human TNFR2 molecule overexpressed on CHO-S cells
T2 sequence: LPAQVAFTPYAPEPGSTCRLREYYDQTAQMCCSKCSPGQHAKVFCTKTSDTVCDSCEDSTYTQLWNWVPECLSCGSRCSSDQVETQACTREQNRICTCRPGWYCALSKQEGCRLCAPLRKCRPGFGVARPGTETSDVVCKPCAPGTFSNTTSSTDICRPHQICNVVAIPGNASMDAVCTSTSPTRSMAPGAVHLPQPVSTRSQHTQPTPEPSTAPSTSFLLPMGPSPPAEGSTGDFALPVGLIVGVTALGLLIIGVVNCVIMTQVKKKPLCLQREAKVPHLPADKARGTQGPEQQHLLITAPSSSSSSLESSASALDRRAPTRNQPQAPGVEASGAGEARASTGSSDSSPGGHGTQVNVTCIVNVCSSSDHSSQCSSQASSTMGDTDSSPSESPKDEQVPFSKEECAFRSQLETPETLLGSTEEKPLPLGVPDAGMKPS
Method: In the study, the binding of the hybridoma antibodies (3C4, 69B1, and 72G8) of the present invention, after being diluted in a gradient, to a stable CHO-S cell strain overexpressing human TNFR2 on the surface was assayed by using a flow cytometer.
CHOS-hTNFR2 cells or CHOS-cTNFR2 cells were counted and diluted to 2×10⁶ cells/mL, and added to a U-bottom 96-well plate at 100 μL/well. The mixture was centrifuged at 300 g for 5 min, and the cell medium was removed. The dilutions of the samples (the hybridoma antibodies 3C4, 69B1, and 72G8 and the positive control antibody OPI) (the antibodies were subjected to a two-fold serial dilution in PBS from the maximum antibody concentration of 300 nM) were added to the U-plate, and the cells were resuspended at 100 μL/well and left to stand on ice for 30 min. The suspension was centrifuged at 400 g for 5 min, and the supernatant was removed. The cells were washed twice with PBS. The mixture was centrifuged at 300 g for 5 min, and PBS was removed. […] The mixture was centrifuged at 400 g for 5 min, and the supernatant was removed. The cells were washed 3 times with PBS. The cells were resuspended in 200 μL of 1×PBS and assayed by FACS.

[3] = biological target: T2, human TNFR2 overexpressed on CHO-S …; experiment: flow cytometry on CHO-S cells overexpressing human TNFR2 (positive control), MFI-FL2A; unit taken from the axis Conc log(nM)
Method: (§1) In the study, the binding of the antibodies, after being diluted in a gradient, to a stable CHO-S strain line overexpressing human TNFR2 on the surface was assayed by using a flow cytometer.
(§2) CHOS-hTNFR2 cells were counted and diluted to 2×10⁶ cells/mL, and added to a U-bottom 96-well plate at 100 μL/well. The mixture was centrifuged at 300 g for 5 min, and the cell medium was removed. Samples (the humanized antibodies hz3C4.7, hz69B1.5, hz69B1.6, hz69B1.11 and hz69B1.20, the chimeric antibody 69B1, and the positive control antibody OPI) (the antibodies were subjected to a three-fold dilution in PBS from the maximum antibody concentration of 300 nM) were added to the U-plate, and the cells were resuspended at 100 μL/well and left to stand on ice for 30 min. The suspension was centrifuged at 400 g for 5 min, and the supernatant was removed. The cells were washed twice with PBS. The mixture was centrifuged at 300 g for 5 min, and PBS was removed. 100 μL of anti-human Fc PE-labeled secondary antibody (SoutherBiotech; 2040-09) (diluted at a 1:100 ratio in PBS) was added to each well and incubated on ice for 30 min in the dark. The mixture was centrifuged at 400 g for 5 min, and the supernatant was removed. The cells were washed 3 times with PBS. The cells were resuspended in 200 μL of 1×PBS and assayed by FACS.

[4] = biological target: T2, human TNFR2 overexpressed on CHO-S …; experiment: flow cytometry on CHO-S cells overexpressing human TNFR2 (chimeric antibody 69B1 beside the humanized antibodies), MFI-FL2A; unit taken from the axis Conc log(nM)
Method: as §1, §2

IC50 (read off the curve) [1]: ~6 nM
EC50 (read off the curve) [2]: ~2 nM
EC50 [3]: 0.486 nM
B1: positive control antibody OPI (humanized antibody SBT-002e in WO 2017083525) (antibody, V domains shown)
VH: QVTLKESGPALVKPTQTLTLTCTFSGFSLSTSGMGVGWIRQPPGKALEWLAHIWWDDDKFYNPSLKSRLTISKDTSKNQVVLTMTNMDPVDTATYYCARLTGTRYFDYWGQGTTVTVSS
VL: DVQMTQSPSSLSASVGDRVTITCKASQDINKFIAWYQQKPGKAPKLLIHYTSTLQPGIPSRFSGSGSGRDYTFTISSLQPEDIATYYCLQYGNLWTFGGGTKVEIK
notes: also called Benchmark OPI

EC50 [4]: 0.489 nM
B2: chimeric antibody 69B1 (antibody, human IgG1, kappa, V domains shown)
VH: QIQLVQSGPELKKPGETVKISCKASGYTFTDYSMNWVKQAPGKGLKWMGWLNTETGEPIYADDFKGRFVFSLETSASTAYLEINNLNDEDTATYFCAREAIYYGTSYVLDYWGQGTSVTVSS
VL: DIVLTQSPASLAVSLGQRATISCRASESVEYYGTNFMQWYQQKPGQPPKLLIYSASNVESGVPARFSGSGSGTDFSLNIHPVEEDDIAVYFCQQSRKDPSTFGEGTNLEIKR
